The source of these data is patent publication US5622828, “High-affinity oligonucleotide ligands to secretory phospholipase A2 (sPLA2)” (Nexstar Pharmaceuticals, Inc.).

B1: 73tF (ssRNA)
RNA: GGGAGCUCAGAAUAAACGCUCAACUUACAGUUCGGCUGAGAGAAGACGCAUACUUCGACAUGAGGCCCGGAUCCGGC
modifications: 2'-F all C and U
B2: 86tF (ssRNA)
RNA: GGGAGCUCAGAAUAAACGCUCAACGCCUCAUGCCAAUGCGGGAGGGUGGGUGGUUCGACAUGAGGCCCGGAUCCGGC
modifications: 2'-F all C and U
B3: 11tF (ssRNA)
RNA: GGGAGCUCAGAAUAAACGCUCAACUUACGGGUAAAGCCGAGAAAAUGUAUUGCUUCGACAUGAGGCCCGGAUCCGGC
modifications: 2'-F all C and U
B4: 72F (ssRNA)
RNA: GGGAGCUCAGAAUAAACGCUCAAGACCUCUGCUUACAGCCCGGCUGAGACACUUCGACAUGAGGCCCGGAUCCGGC
modifications: 2'-F all C and U
B5: NN11 (ssRNA)
RNA: GGGAAAAGCGAAUCAUACACAAGACCGGCCGGGGAAACCCGAGGUCCGAGGUAACGCAUGGCGCCUCACCGAGUCGCUCCGCCAGAGACCAACCGAGAA
modifications: 2'-NH2 all C and U
B6: NN16 (ssRNA)
RNA: GGGAAAAGCGAAUCAUACACAAGACCGGCCGGGGAAACCCGAGAUCCGAGGUAACGCAUGGCGCCUCACCGAGUCGCUCCGCCAGAGACCAACCGAGAA
modifications: 2'-NH2 all C and U
B7: NN2 (ssRNA)
RNA: GGGAAAAGCGAAUCAUACACAAGAGACCGGCCAGCCAAGGCGCUGAGAUCCGAGGUUUCAGAACCCAUCGGGUUGGCUCCGCCAGAGACCAACCGAGAA
modifications: 2'-NH2 all C and U
B8: NN10 (ssRNA)
RNA: GGGAAAAGCGAAUCAUACACAAGACCGGCCGGCGCCAUAGCCGAGAUCCGAGGUUGUACGAUGACAACUCAGUGCUCCGCCAGAGACCAACCGAGAA
modifications: 2'-NH2 all C and U
B9: NS14 (ssRNA)
RNA: GGGAGGACGAUGCGGAAAUGUGUUAGUGAAUGAUUGAGAGAAGAUAGAUGAUGUUGAAGUCUGGCCAGACGACUCGCCCGA
modifications: 2'-NH2 all C and U
B10: NS4 (ssRNA)
RNA: GGGAGGACGAUGCGGGUAGGGAUAAGCGAGUGUACAGCGAAUACGACUCGGAAUGCUUGGUGCGCCAGACGACUCGCCCGA
modifications: 2'-NH2 all C and U
B11: NN30 (ssRNA)
RNA: GGGAAAAGCGAAUCAUACACAAGAGCCAGCGAGUGUCGACAGUGUGGGUGGAAGUGACGGGAGGAUUGGAGACGCUCCGCCAGAGACCAACCGAGAA
modifications: 2'-NH2 all C and U
B12: NS18 (ssRNA)
RNA: GGGAGGACGAUGCGGAAGUAGAUGAUGGAUUGAGAUGUAAGUGUCAGUAUGAAGAGUCUCUGGGCCAGACGACUCGCCCGA
modifications: 2'-NH2 all C and U
B13: NN40 (ssRNA)
RNA: GGGAAAAGCGAAUCAUACACAAGACCCCUUGAGCUCGUGACGCAGGAGGAGGGCCGAGGAGGAAAGUCGUCACAGCUCCGCCAGAGACCAACCGAGAA
modifications: 2'-NH2 all C and U
B14: NS1 (ssRNA)
RNA: GGGAGGACGAUGCGGAUAAGGAGGAGCAAGCGAGAAAUUGAGAAGUAACAAGAUCGACAUGGCCCCAGACGACUCGCCCGA
modifications: 2'-NH2 all C and U
B15: NS10 (ssRNA)
RNA: GGGAGGACGAUGCGGUGACAAAUGAGCAAGUAGCGAUAGAUGUGAUGGACAGAGACAGCCGGGGCCAGACGACUCGCCCGA
modifications: 2'-NH2 all C and U
B16: NS7 (ssRNA)
RNA: GGGAGGACGAUGCGGAGGAAAUGAAGUAGUGAGAGUAUAACAUGAUUAUGAAUACGUGAUGUGGCCAGACGACUCGCCCGA
modifications: 2'-NH2 all C and U
B17: NS49 (ssRNA)
RNA: GGGAGGACGAUGCGGAUAAGGAUAAGAUCGAACGAGAGUGAACAAAGUUAAAUACAGUCUGGGGGCAGACGACUCGCCCGA
modifications: 2'-NH2 all C and U
B18: NN19.11 (ssRNA)
RNA: GGGAAAAGAAGACCGGCCGGCGCCAUAGCCGAGAUCCGAGGUGUUGAACGAUAGACCAACCGAGAA
modifications: 2'-NH2 all C and U
B19: NS2 (ssRNA)
RNA: GGGAGGACGAUGCGGUAGUAACGGAUACUGAUCCGAGGUUAUAGUCACUAUAUCAUCCGCUGCGCCAGACGACUCGCCCGA
modifications: 2'-NH2 all C and U
B20: NS13 (ssRNA)
RNA: GGGAGGACGAUGCGGUGAGCUUAGGAUAGGAGCAACAAGUAGAGUAGAGUGAUAACUAGGGUGGCCAGACGACUCGCCCGA
modifications: 2'-NH2 all C and U
B21: NS6 (ssRNA)
RNA: GGGAGGACGAUGCGGAACUAAAAGACAGAGAGAAAACGACAAUACGAAGUACAUAUAACCCUGGCCAGACGACUCGCCCGA
modifications: 2'-NH2 all C and U
B22: NS39 (ssRNA)
RNA: GGGAGGACGAUGCGGGUAGGGAUGAAGUGCGAUGUGAAUCCGGGUGCUAGCGAUGAUGUGUGCCCCAGACGACUCGCCCGA
modifications: 2'-NH2 all C and U
B23: NN19.14 (ssRNA)
RNA: GGGAAAAGAAGACCGGCCGGCGCCAUAGCCGAGAUCCGAGGUGUUGAACGAUCCGAGAA
modifications: 2'-NH2 all C and U
B24: NS12 (ssRNA)
RNA: GGGAGGACGAUGCGGUGAAAGAGAAAGGUUGAGAUGAUUACAAGCGAAUUGGAUAAGUGUCUGGCCAGACGACUCGCCCGA
modifications: 2'-NH2 all C and U
B25: NN1 (ssRNA)
RNA: GGGAAAAGCGAAUCAUACACAAGACGGCGAGCAUGCGGCGAGUGGAGGGGGACUGAUGGAGGGCGAGACCGUGUGCUCCGCCAGAGACCAACCGAGAA
modifications: 2'-NH2 all C and U
B26: NN22 (ssRNA)
RNA: GGGAAAAGCGAAUCAUACACAAGACGGCGAGCAUGCGGCGAGUGGAGGAGGACUGAUGGAGGGCGAGACCGUGUGCUCCGCCAGAGACCAACCGAGAA
modifications: 2'-NH2 all C and U
B27: NN19.13 (ssRNA)
RNA: GGGAAAAGAAGACCGGCCGGCGCCAUAGCCGAGAUCCGAGGUGUUGAGACCAACCGAGAA
modifications: 2'-NH2 all C and U
B28: NS48 (ssRNA)
RNA: GGGAGGACGAUGCGGGCUAAGGGAAGACAAUGAGAUAGCAGACAAUCAACUACACCCAUGUGCGUCAGACGACUCGCCCGA
modifications: 2'-NH2 all C and U

A word on the Kd: it is a measure of binding affinity in units of concentration. Read a high Kd as weaker binding.

For the first data set, the target named is T1, secretory phospholipase A2 (sPLA2) (Homo sapiens, UniProt P14555 P14555:21-144).
T1 sequence: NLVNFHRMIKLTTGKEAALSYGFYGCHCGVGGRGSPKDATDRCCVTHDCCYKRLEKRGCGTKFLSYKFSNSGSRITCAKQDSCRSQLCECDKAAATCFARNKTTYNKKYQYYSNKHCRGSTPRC
Description: filter; monophasic; TBSC, 37 C. The following applies: tags: supplied by Eli Lilly. The protocol:
(§1) The nitrocellulose filter partitioning method was used as described in SELEX Patent Applications to determine the affinity of RNA ligands for sPLA_2 and for other promins. Filter discs (nitrocellulose/cellulose acetate mixed matrix, 0.45 µm pore size, Millipore) were placed on a vacuum manifold and washed with 5 ml of TBSC buffer under vacuum. Reaction mixtures, containing ^32P labeled RNA pools and sPLA_2, were incubated in TBSC for 5 minutes at 37° C., filtered, and then immediately washed with 5 ml TBSC. The filters were air-dried and counted in a Beckman liquid scintillation counter without fluor.
(§2) The dissociation constants for representative members of families I–VI, orphan and other ligands were determined by nitrocellulose filter binding experiments and are listed in Table III. Unlike random RNA, all tested ligands from the 2'OH SELEXes bound biphasically.
B1 yielded a dissociation constant Kd of 0.014 µM. Molecule B2 registered a Kd of 0.012 µM.

Molecule B3 displayed a Kd of 0.007 µM. On the same count and under the same terms, the same measure for B4: 0.0056 µM.

Staying with this data set, now noted: tags: supplied by Eli Lilly; hairpin with asymmetric internal loop.
B5 returned a Kd of 0.0028 µM.

As for B6, binding was put at a Kd of 0.0009 µM. B7 returned a Kd of 0.0012 µM. Still for that read-out and setting: the result for B8 reads 0.0004 µM.

Another data set addresses T1, secretory phospholipase A2 (sPLA2). Description: filter; TBSC, 37 C. The following applies: tags: supplied by Eli Lilly. The protocol: as §1, §2
The molecule B9 yielded a Kd of 0.012 µM. Take B10: binding was put at a Kd of 0.024 µM. Same read-out and setting: the result for B11 reads 0.023 µM.

In turn, B12 displayed a dissociation constant (Kd) of 0.052 µM.

Turning to B13, the Kd is 0.031 µM. On the same count and under the same terms, the same measure for B14: 0.042 µM; for B15: 0.022 µM; for B16: 0.018 µM. On the same count and under the same terms, the same measure for B17: 0.026 µM; for B18: 0.0005 µM. For B19, the affinity, expressed as Kd, was 0.022 µM. The same measure, in the same setting: the result for B20 reads 0.015 µM; that for B21, 0.028 µM; that for GGGAAAAGAAGACCGGCCGGCGCCAUAGCCGAGAUCCGAGGUGUUGA (ssRNA, 2'-NH2 all C and U) [NN19.4], 0.0073 µM. Same read-out and setting: the result for B22 reads 0.016 µM. Same read-out and setting: the same measure for B23: 0.001 µM; for B24: 0.04 µM; for B25: 0.021 µM. Regarding B26, binding was put at a Kd of 0.036 µM. Same read-out and setting: the result for B27 reads 0.0022 µM.

Molecule B28 displayed a dissociation constant Kd of 0.042 µM.
